# Values of other authors in publication PMC5979539 (International Journal of Molecular Sciences, 2018).
# Test system: PC membranes
# Details: cited from earlier work
# Description: Despite the above-discussed limitations, we were able to determine the SPR binding parameters of PDC-109. Affinity constants (Table 4) indicated weak to moderate binding for carbohydrates, at least if compared to the considerably higher affinity (KA~10^7 M^−1) found for PC membranes.
molecule,measurement,value
"PDC-109: main protein of bovine seminal plasma, purified from bull seminal plasma; glycosylated and non-glycosylated forms (protein, mixture of the glycosylated (O-linked trisaccharide, Neu5Ac-Hex-HexNAc) and non-glycosylated forms) DQDEGVSTEPTQDGPAELPEDEECVFPFVYRNRKHFDCTVHGSLFPWCSLDADYVGRWKYCAQRDYAKCVFPFIYGGKKYETCTKIGSMWMSWCSLSPNYDKDRAWKYC",KA for PC membranes,~ 10^7 M^−1
